Consider 3 molecules from PMC7893173.

Assay [1] deals with HSV-1 nuclear egress complex NEC220 (UL31 1–306 with UL34 1–220) (herpes simplex virus type 1) (UniProt P10215).
The target is the same in assay [2]. This is another data set of the same source.
Assay [3] shares this target. This is another data set of the same source.

In assay [1], “UL25^native(45–94) peptide (from UniProt P10209 45-94)” yielded an inhibition of NEC220-mediated budding of giant unilamellar vesicles in vitro (1 μM NEC220; NEC:peptide 1:0.1, 1:0.3, 1:0.6, 1:1 and 1:10; maximal effect at 1:1) (% reduction in budding) of 75. As for “HSV-1 UL25∆44 Q72A (from UniProt P10209 45-580) (domain or fragment)”, the inhibition of NEC220-mediated budding of giant unilamellar vesicles in vitro (1 μM NEC220; not inhibitory at NEC:UL25 1:1, value at 1:10) (% reduction in budding) in assay [2] worked out at 90.

B1: (EAEKAAK)7EAEK peptide (peptide)
peptide: EAEKAAKEAEKAAKEAEKAAKEAEKAAKEAEKAAKEAEKAAKEAEKAAKEAEK
In turn, B1 returned an inhibition of NEC220-mediated budding of giant unilamellar vesicles in vitro (1 μM NEC220; not inhibitory at NEC:peptide 1:1, value at 1:10) (% reduction in budding) in assay [3] of 50.
